These results are taken from PMC11565934 (bioRxiv, 2024).

The target in the assay is myristylated PKA-Cα K7C (mouse, UniProt P05132 1-351, K7C, N-terminal myristylation). The experiment in a line: SPR.

B1: phosphorylated SMO IFR→AAA (I573A, F577A, R580A; FLAG-tagged mouse SMO 64-674) in nanodiscs (receptor)
chain: LLSHCGRAAHCEPLRYNVCLGSALPYGATTTLLAGDSDSQEEAHGKLVLWSGLRNAPRCWAVIQPLLCAVYMPKCENDRVELPSRTLCQATRGPCAIVERERGWPDFLRCTPDHFPEGCPNEVQNIKFNSSGQCEAPLVRTDNPKSWYEDVEGCGIQCQNPLFTEAEHQDMHSYIAAFGAVTGLCTLFTLATFVADWRNSNRYPAVILFYVNACFFVGSIGWLAQFMDGARREIVCRADGTMRFGEPTSSETLSCVIIFVIVYYALMAGVVWFVVLTYAWHTSFKALGTTYQPLSGKTSYFHLLTWSLPFVLTVAILAVAQVDGDSVSGICFVGYKNYRYRAGFVLAPIGLVLIVGGYFLIRGVMTLFSIKSNHPGLLSEKAASKINETMLRLGIFGFLAFGFVLITFSCHFYDFFNQAEWERSFRDYVLCQANVTIGLPTKKPIPDCEIKNRPSLLVEKINLFAMFGTGIAMSTWVWTKATLLIWRRTWCRLTGHSDDEPKRIKKSKMAAKAASKARELLQNPGQELSFSMHTVSHDGPVAGLAFDLNEPSADVSSAWAQHVTKMVARRGAILPQDVSVTPVATPVPPEEQANMWLVEAEISPELEKRLG
modifications: GRK2/3-phosphorylated; mapped sites pS560, pS594, pT597, pS599, pS615, pS642, pT644, pT648
What is called Kd is the equilibrium constant for the complex coming apart. Lower therefore signals tighter binding. As for B1, binding was characterised by a dissociation constant (Kd) of 222 nM.
